From patent US20240043568A1 (KEYMED BIOSCIENCES, published 2024)
Changes are numbered by the printed parent chain.

How the values were obtained:
[1] = biological target: T1, recombinant human GPC3 protein (human, UniProt P51654 25-563); experiment: BLI (Octet), antibody on Protein A probe
T1 construct: also called human GPC3 full-length protein; recombinant GPC3 protein
Experimental: Using BLI technology (Octet), the antibody to be tested was captured on the Protein A probe. The binding capacity with human GPC3 protein (10 μg/ml as the initial concentration, 2-fold gradient, a total of 5 concentration points) was detected. The affinity constant KD was obtained according to the association and dissociation rates. The 49G8 humanized antibody binds to the recombinant GPC3 protein with high affinity. The affinity data is seen in Table 6.

[2] = biological target: T2, recombinant cynomolgus monkey GPC3 full-length protein (cynomolgus monkey, UniProt A0A2K5VK50 24-558); experiment: ELISA on coated recombinant cynomolgus monkey GPC3 protein, OD450 [panel Recombinant cynomolgus monkey GPC3 protein]
[3] = biological target: T2, recombinant cynomolgus monkey GPC3 …; experiment: SPR (Biacore T200), antibody on Protein A chip, GPC3 as analyte
Experimental: (§1) Humanized antibodies with higher affinity were selected and compared for binding to human and cynomolgus monkey GPC3. The humanized antibody h49G8VHv6VKv3 was captured by the Protein A chip (GE healthcare). The recombinant proteins of human and cynomolgus monkey GPC3 diluted in gradient (5 μg/ml as the initial concentration, 2-fold gradient, 5 concentration points in total) were flowed through the chip at a flow rate of 30 μL/min, with a binding time of 150 seconds and dissociation time of 600 seconds. The kinetic constant was fitted using Biacore T200 evaluation software with a Langmuir 1:1 kinetics model. The humanized antibody h49G8VHv6VKv3 binds to human and cynomolgus monkey GPC3 with high affinity. […] The affinity data is seen in Table 7.

[4] = biological target: T1, recombinant human GPC3 protein; experiment: as above
Experimental: as §1

[5] = biological target: T1, recombinant human GPC3 protein; experiment: ELISA on coated recombinant human GPC3 protein, OD450 [panel Recombinant human GPC3 protein]
human GPC3 on cells = biological target: T3, human GPC3 on cells (human, UniProt P51654 25-563); experiment: flow cytometry on human GPC3-CHO stably-transfected cells, MFI
T3 construct: whole, on cells; One molecule is used for both CHO-hGPC3 transfectants and GPC3+ HepG2 cells; The assay field names the cell; also called CHO-hGPC3 (clone 2B10); CHO-human GPC3

[6] = biological target: T4, human CD3εγ-Fc heterodimer (human); experiment: ELISA on coated human CD3εγ protein, A450 [panel Human CD3 εγ dimer]
T4 construct: also called human CD3 εγ protein; recombinant CD3 εγ protein
T4 chain 1: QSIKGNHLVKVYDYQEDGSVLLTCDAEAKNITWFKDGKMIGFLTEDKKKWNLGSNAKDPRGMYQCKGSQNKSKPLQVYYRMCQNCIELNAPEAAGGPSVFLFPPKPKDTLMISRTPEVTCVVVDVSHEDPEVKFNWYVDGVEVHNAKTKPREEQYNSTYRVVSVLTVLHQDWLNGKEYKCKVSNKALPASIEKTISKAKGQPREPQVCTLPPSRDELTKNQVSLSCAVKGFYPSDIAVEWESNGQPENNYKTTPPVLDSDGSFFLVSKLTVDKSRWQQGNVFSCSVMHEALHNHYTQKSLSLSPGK
T4 chain 2: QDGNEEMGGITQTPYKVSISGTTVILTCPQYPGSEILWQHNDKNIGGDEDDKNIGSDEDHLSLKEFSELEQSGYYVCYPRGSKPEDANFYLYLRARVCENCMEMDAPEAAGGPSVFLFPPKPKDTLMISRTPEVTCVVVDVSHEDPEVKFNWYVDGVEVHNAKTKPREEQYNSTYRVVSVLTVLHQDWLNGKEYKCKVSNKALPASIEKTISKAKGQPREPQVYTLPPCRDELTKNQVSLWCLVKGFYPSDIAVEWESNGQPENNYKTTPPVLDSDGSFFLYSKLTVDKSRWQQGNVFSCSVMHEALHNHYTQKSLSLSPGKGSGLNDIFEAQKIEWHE
Experimental: (§2) Human CD3 εγ protein and monkey CD3 εγ protein were coated separately overnight at 4° C. After blocking with 2% skim milk, different dilutions of CD3 antibody were added to each well and incubated for 1 hour. The secondary antibody HPR-labeled goat anti-human IgG Fc was added. After being developed by the TMB solution. The reaction was stopped with the concentrated sulfuric acid and the absorbance was read at 450 nm.

[7] = biological target: T4, human CD3εγ-Fc heterodimer; experiment: ELISA, coated human CD3εγ protein
Experimental: as §2, with “was” for “and monkey CD3 εγ protein were”, “coated” for “coated separately”, “antibodies was” for “antibody were”, “solution, the” for “solution. The”, “acid,” for “acid”, “nm (the results are shown in FIG. 12 and Table 8).” for “nm.”

human CD3 on T cells = biological target: T5, human CD3 on T cells (human, UniProt P07766 23-207); experiment: flow cytometry, Jurkat cells
T5 construct: whole, on cells; The target is the native CD3 complex on cells; The recombinant antigen used elsewhere is the εγ heterodimer; also called CD3 on Jurkat cells; CD3 on human peripheral blood CD4+ and CD8+ T cells
Experimental: Jurkat cells in the logarithmic growth phase were taken, blocked with 3% BSA for 30 min, and added to 96-well U-plate at 5×10⁴ cells per well. The supernatant was discarded after centrifugation. 50 μL of gradient diluted antibody was added (antibody concentration: from 30 ng/mL, 3-fold dilution for 5 gradients) per well, and incubated at 4° C. for 1 hour. […] After washing, 50 μL PBS was added per well to perform resuspending for FACS (iQue, intellicyt) assay (the results are seen in FIG. 13, and Table 10).

[8] = biological target: T6, cynomolgus monkey CD3εγ-Fc heterodimer (cynomolgus monkey); experiment: ELISA on coated monkey CD3εγ protein, A450 [panel Monkey CD3 εγ dimer]
T6 construct: also called monkey CD3 εγ protein
T6 chain 1: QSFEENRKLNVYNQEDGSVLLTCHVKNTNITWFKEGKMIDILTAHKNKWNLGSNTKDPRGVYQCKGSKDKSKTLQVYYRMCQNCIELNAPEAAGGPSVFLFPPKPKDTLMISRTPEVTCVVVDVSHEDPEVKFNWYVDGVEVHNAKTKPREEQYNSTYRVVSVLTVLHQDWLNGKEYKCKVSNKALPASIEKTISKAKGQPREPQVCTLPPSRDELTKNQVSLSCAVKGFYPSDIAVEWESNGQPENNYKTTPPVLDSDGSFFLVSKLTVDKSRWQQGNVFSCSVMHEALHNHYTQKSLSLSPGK
T6 chain 2: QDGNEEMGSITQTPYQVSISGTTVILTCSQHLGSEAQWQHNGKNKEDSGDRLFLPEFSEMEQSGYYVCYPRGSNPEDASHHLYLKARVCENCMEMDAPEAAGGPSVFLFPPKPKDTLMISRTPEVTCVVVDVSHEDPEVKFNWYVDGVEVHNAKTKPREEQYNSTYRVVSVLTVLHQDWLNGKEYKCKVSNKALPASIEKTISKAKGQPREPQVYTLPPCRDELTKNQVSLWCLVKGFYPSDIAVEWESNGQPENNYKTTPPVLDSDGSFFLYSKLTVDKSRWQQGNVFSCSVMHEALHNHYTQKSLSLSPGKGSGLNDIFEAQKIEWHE
Experimental: as §2

B1: h49G8VHv6VKv3 (antibody, V domains shown)
VH: QVQLVQSGAEVKKPGSSVKVSCKASGYTFADYEIHWVRQAPGQGLEWMGAIHPGSGGTAYAQKFQGRVTLTADESSTTAYMELSSLRSEDTAVYYCTRYYSFAYWGQGTLVTVSS
VL: DVVMTQSPLSLPVTPGEPASISCRSSQSIVHSNGNTYLEWYLQKPGQSPQLLIYKVSNRFSGVPDRFSGSGSGTDFTLKISRVEAEDVGVYFCLQVTHVPLTFGQGTKLEIK
notes: Humanized 49G8
B1 gave a Kd [1] of 1.42 nM, a koff [1] of 0.000134 s⁻¹ and a kon [1] of 94800 M⁻¹ s⁻¹. For the same binder, the “EC50 (read off the curve)” value [2] was roughly 0.03 nM, the Kd [3] was 2.1 nM and the koff [3] was 0.00025 s⁻¹. The kon [3] was 119000 M⁻¹ s⁻¹, the Kd [4] was 1.39 nM and the koff [4] was 0.000351 s⁻¹. For the same binder, the kon [4] was 253000 M⁻¹ s⁻¹, the “EC50 (read off the curve)” value [5] was roughly 0.03 nM and the “EC50 (read off the curve)” value (human GPC3 on cells) was roughly 2 nM.

B2: h49G8VHv6VKv6 (antibody, V domains shown)
VH: B1 VH
VL: B1 VL with G34A
notes: Humanized 49G8
Binder B2 has a Kd [1] of 2.38 nM, a koff [1] of 0.00022 s⁻¹ and a kon [1] of 92400 M⁻¹ s⁻¹. The “EC50 (read off the curve)” value [2] was roughly 0.03 nM, the “EC50 (read off the curve)” value [5] was roughly 0.03 nM and the “EC50 (read off the curve)” value (human GPC3 on cells) was roughly 2 nM.

B3: aCD3-hVH9/VL2 (antibody, V domains shown)
VH: EVQLVESGGGLVQPGGSLRLSCAASGFTFNTYAMNWVRKAPGKGLEWVGRIRSKYNNYATYYADSVKDRFTISRDDSKNSLYLQMNSLKTEDTAVYYCVRHGNFGNSYVSWFAYWGQGTLVTVSS
VL: QAVVTQEPSLTVSPGGTVTLTCRSSTGAVTTSNYANWVQEKPGQAPRGLIGGTNKRAPWTPARFSGSLLGGKAALTLSGAQPEDEAEYYCALWYSNLWVFGGGTKLTVL
notes: Human IgG4, lambda
With B3 the “EC50 (read off the curve)” value [6] was roughly 0.04 ng/mL, the EC50 [7] was 0.44 nM and the EC50 (human CD3 on T cells) was 25 nM. For the same binder, the “EC50 (read off the curve)” value [8] was roughly 0.04 ng/mL.

B4: aCD3-hVH1/VL5 (antibody, V domains shown)
VH: B3 VH with K39Q, G49S, S80T, K89R, T90A
VL: B3 VL with L77I, S78T, P82A, A91V
notes: Humanized CD3 antibody with human IgG4 CH1-CH3 and a lambda light chain constant region
In the case of B4, the EC50 [7] is reported as 0.6 nM and the EC50 (human CD3 on T cells) is reported as 10 nM.

B5: aCD3-hVH8/VL1 (antibody, V domains shown)
VH: B3 VH with V99A
VL: B3 VL with E40Q
notes: Human IgG4, lambda
Work on B5 yielded an EC50 [7] of 0.65 nM and an EC50 (human CD3 on T cells) of 15 nM.

B6: aCD3-hVH9/VL1 (antibody, V domains shown)
VH: B3 VH
VL: B3 VL with E40Q
notes: Human IgG4, lambda
In the case of B6, the EC50 [7] is reported as 0.49 nM and the EC50 (human CD3 on T cells) is reported as 7 nM.

B7: aCD3-hVH9/VL5 (antibody, V domains shown)
VH: B3 VH
VL: B3 VL with L77I, S78T, P82A, A91V
notes: Human IgG4, lambda
With B7 the “EC50 (read off the curve)” value [6] was roughly 0.05 ng/mL, the EC50 [7] was 0.42 nM and the EC50 (human CD3 on T cells) was 20 nM. For the same binder, the “EC50 (read off the curve)” value [8] was roughly 0.05 ng/mL.
